Assay results taken from paper PMC10602924.

B1: MSH2 S612X RNA (ssRNA)
RNA: UCAAAUGGAGCACCUGUUCCAUAUGUACGA
B2: VEGFA 3'UTR WT RNA (ssRNA)
RNA: UGAGCCGGGCAGGAGGAAGGAGCCUCCCUCAGGGUUUCGGGAACCAGAUCUCUCACCAGGAAAGACUGA

Legend:
Assay in all cases: EMSA
[1] = target: SerRS WT (human, UniProt P49591 1-514)
[2] = target: SerRS T429A (human, UniProt P49591 1-514, T429A)
[3] = target: SerRS deltaUNE-S (human, UniProt P49591 1-469)
Chain of SerRS deltaUNE-S (P49591 1-469, stated change not applied): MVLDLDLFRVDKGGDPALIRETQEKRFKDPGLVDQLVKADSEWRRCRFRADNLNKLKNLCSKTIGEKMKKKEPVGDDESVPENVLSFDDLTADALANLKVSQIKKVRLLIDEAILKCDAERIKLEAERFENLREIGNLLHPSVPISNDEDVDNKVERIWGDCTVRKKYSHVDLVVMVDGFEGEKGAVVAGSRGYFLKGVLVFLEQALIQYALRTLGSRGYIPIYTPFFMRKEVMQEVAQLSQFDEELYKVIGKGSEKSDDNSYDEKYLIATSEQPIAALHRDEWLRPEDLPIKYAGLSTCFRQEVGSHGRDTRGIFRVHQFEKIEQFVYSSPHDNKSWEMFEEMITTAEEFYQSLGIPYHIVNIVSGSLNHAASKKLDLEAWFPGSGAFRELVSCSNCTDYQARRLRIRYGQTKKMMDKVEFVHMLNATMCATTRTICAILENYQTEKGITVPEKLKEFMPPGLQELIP

Chain of SerRS WT (P49591 whole entry): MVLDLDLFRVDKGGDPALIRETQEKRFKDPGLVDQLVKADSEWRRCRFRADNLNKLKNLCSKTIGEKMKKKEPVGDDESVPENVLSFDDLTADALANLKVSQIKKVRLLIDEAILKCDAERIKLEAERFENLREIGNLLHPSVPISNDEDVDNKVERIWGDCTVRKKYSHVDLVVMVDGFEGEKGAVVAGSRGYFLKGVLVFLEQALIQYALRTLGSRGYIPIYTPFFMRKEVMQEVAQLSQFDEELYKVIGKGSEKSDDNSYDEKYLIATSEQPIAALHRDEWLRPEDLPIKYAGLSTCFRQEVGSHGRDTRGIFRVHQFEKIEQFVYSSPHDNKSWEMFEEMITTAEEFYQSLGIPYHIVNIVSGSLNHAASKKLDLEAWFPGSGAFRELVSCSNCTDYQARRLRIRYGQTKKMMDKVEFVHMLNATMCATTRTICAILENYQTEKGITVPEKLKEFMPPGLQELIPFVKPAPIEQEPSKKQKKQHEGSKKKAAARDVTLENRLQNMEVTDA
Chain of SerRS T429A (P49591 whole entry T429A): as the sequence (P49591 whole entry) above, with T429A counted along it

| Binder | binding result [1] | binding result [2] | binding result [3] |
| --- | --- | --- | --- |
| B1 | binds |  |  |
| B2 | binds | binds | no binding |
